The record followed here is paper PMC7249126.

Test [1] concerns the target recombinant CD81 large extracellular loop (CD81-LEL). The test is described as follows: peptide or protein array; direct analysis on a 3-D biochip: CD81-LEL covalently immobilised in spots (300 pg/spot) on macroporous P(GMA-co-DEGDMA), blocked with BSA; E2-GFP or VMPs in solution, 0.01 M PBS pH 7.4 (VMPs also in spiked human blood plasma), 2 h, 37 °C; GFP fluorescence read; apparent dissociation constants from adsorption isotherms linearised in double reciprocal coordinates.

The target is the same in test [2]. Put plainly: peptide or protein array; sandwich analysis on a 3-D biochip: CD81-LEL immobilised (300 pg/spot); E2-GFP or VMPs at 1500 ng/mL, 2 h, 37 °C; then Cy3-labelled polyclonal anti-E2 antibodies (1000 ng/mL, 3 h) for detection; 0.01 M PBS pH 7.4 or spiked human blood plasma.

As for “chimeric protein E2-superfolder GFP (HCV E2 core, 412-645 aa) (domain or fragment)”, the Kd in test [1] is 11.6 nM.

With “hepatitis C virus-mimetic particles (HC VMPs): PLA-b-PEG nanoparticles bearing E2-GFP on their surface”, the decrease in relative signal intensity against free E2 in test [2] was 45 to 48%; in test [1] it was 40%. In addition, the Kd in test [1] is 26.3 nM.
